In PMC4928127, “Determination of GLUT1 Oligomerization Parameters using Bioluminescent Förster Resonance Energy Transfer” (Scientific Reports, 2016):

Target: T1, Nluc-GLUT1 (mouse, UniProt P17809 1-492)
T1 construct: facilitated glucose transporter GLUT1 (SLC2A1), mouse Glut1 open reading frame; BRET donor; also called GLUT1 fused to Nluc at the N-terminus; not shown: Nanoluciferase (Nluc), N-terminal, kept
T1 sequence (looked up): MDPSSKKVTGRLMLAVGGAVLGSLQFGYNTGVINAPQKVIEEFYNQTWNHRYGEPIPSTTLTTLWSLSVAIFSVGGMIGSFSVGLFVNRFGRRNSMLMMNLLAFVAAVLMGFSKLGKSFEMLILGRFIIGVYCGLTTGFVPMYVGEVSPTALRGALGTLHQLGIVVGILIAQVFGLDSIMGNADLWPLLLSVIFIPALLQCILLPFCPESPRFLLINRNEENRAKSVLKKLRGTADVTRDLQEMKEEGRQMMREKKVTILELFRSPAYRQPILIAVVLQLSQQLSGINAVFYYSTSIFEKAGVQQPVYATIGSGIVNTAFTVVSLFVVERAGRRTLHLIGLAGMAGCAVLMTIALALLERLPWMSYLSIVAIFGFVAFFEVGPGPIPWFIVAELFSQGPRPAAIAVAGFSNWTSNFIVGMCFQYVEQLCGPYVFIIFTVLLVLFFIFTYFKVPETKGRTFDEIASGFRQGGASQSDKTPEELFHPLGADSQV
Experiment: FRET or BRET; stable polyclonal 293FT/dox^GB1 cells: constitutive Nluc-GLUT1, mCherry-GLUT1 induced 48 hours with a 2-fold serial dilution of doxycycline; corrected BRET against doxycycline and against mCherry-GLUT1 level relative to endogenous GLUT1 by immunoblot
Conditions: partners not purified

- doxycycline concentration at which ~50% of mCherry-GLUT1 is in multimeric complexes (doxycycline EC50 of BRET): 4.69 ng/mL
B1: mCherry-GLUT1 (natural protein, mouse, UniProt P17809 1-492, looked up)
chain: T1 sequence (looked up)
notes: facilitated glucose transporter GLUT1 (SLC2A1), mouse Glut1 open reading frame; BRET acceptor; also called GLUT1 fused to mCherry at the N-terminus; not shown: mCherry, N-terminal, kept
